From IntAct's records for PubMed 17396155

B1: General receptor for phosphoinositides 1-associated scaffold protein (Rattus norvegicus (Rat)), Q8R4T5 (parent)
chain: MTLRRLRKLQQKEEATAAPDLAGRAPDSEAARAAPTPSGPPAAAAPPGAPGDELYAALEDYHPAELYRALAVSGGTLPRRKGSGFRWKNFTQSPEQQRKVLTLEKGDNQTFGFEIQTYGLHHREEQRVEMVTFVCRVHESSPAQLAGLTPGDTIASVNGLNVEGIRHREIVDIIKASGNVLRLETLYGTSIRKAELEARLQYLKQTLYEKWGEYRSLMVQEQRLVHGLVVKDPSIYDTLESVRSCLYGAGLLPGSLPFGPLLAAPGGARGGSRRAKGDTDDAVYHTCFFGGAEPQALPPPPPPARAPGPGSAETPASVLCPAPRATLSRSASVRCAGPGGGGGGGAPGALWTEAREQALCGAGLRKTKYRSFRRRLLKFIPGLNRSLEEEESQL

Variants of: B1
Conditions: with grm5_rat Grm5, P31424
Chain of grm5_rat Grm5, P31424 (P31424 whole entry, looked up): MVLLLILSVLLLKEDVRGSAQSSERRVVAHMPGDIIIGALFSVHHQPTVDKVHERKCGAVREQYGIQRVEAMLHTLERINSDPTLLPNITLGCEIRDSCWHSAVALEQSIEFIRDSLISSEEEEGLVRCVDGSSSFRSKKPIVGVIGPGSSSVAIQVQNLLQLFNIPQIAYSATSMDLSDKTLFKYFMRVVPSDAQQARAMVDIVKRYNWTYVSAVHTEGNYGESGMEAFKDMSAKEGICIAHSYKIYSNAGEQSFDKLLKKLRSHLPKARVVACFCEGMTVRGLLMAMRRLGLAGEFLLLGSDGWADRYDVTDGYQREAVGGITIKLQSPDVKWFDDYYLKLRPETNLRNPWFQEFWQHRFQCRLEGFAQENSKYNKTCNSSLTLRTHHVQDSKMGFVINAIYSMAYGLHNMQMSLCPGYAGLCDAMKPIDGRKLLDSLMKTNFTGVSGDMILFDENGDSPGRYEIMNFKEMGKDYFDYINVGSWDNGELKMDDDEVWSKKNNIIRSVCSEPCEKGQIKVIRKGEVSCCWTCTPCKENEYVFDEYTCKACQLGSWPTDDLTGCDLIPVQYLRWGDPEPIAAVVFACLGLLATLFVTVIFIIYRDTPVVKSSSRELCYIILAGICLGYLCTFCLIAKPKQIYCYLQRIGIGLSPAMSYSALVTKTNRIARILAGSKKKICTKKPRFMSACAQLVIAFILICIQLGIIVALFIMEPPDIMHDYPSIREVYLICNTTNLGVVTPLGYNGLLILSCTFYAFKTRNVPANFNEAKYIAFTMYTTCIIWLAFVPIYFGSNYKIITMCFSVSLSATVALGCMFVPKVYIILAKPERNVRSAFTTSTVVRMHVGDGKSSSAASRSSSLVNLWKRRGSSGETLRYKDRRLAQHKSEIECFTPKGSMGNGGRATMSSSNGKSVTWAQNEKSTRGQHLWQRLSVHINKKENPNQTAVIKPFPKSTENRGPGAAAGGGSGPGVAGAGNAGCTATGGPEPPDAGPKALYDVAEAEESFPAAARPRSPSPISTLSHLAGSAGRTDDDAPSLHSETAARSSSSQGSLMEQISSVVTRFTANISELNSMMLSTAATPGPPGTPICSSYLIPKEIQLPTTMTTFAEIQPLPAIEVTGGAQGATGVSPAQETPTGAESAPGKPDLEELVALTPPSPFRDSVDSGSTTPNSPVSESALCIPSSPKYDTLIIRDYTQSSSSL

| effect of a mutation on the interaction | Variant |
| --- | --- |
| decreasing interaction | E114K |
